From patent US10072299B2, “Antibodies against epidermal growth factor receptor (EGFR) and uses thereof” (Merrimack Pharmaceuticals, Inc., priority 2011, dated 2018)
One block for each molecule: values may come before it.

Assays:
[1] = conversion of irinotecan by nonspecific carboxylesterases; cited from earlier work
mouse EGFR = mouse EGFR (Mus musculus, UniProt Q01279); assay: Cross reactivity with mouse EGFR; assay type: binding
phospho-ERK = phospho-ERK ELISA in A431 cells; assay type: cell-based, human
Experimental: Cells are serum starved in 1% FBS medium with antibiotics and 2 mM L-glutamine for about 20 hours at 37° C. and 5% carbon dioxide. Cells are then preincubated with varying concentrations of anti-EGFR antibodies for 2 hrs, and then stimulated with human EGF ligand (50 ng/ml) (PeproTech, cat # AF-100-15) for 10 minutes at 37° C. and 5%/carbon dioxide. […] Lysates are either analyzed immediately by ELISA for ERK (a downstream effector of EGFR) and EGFR phosphorylation, or frozen at −80° C. until use.
The phospho-ERK ELISA is performed similarly to the phospho-EGFR ELISA with the following changes: Human pERK ELISA Duoset kit is purchased from R&D Systems (cat# DYC1018-5) and used as recommended by the manufacturer.
A431 cells were treated with a dilution series of antibody and phospho-ERK inhibition measured by ELISA.
Experiments were performed with rhEGF (PeproTech) dosed at a concentration of 50 ng/mL or 500 ng/mL.

phospho-EGFR = phospho-EGFR ELISA in A431 cells; assay type: cell-based, human; settings: EGF stimulated

Molecule: CCc1c2c(nc3ccc(O)cc13)-c1cc3c(c(=O)n1C2)COC(=O)[C@]3(O)CC [SN-38, 7-Ethyl-10-hydroxy-camptothecin]
- activity of metabolite relative to irinotecan [1]: 100-1000 fold

- cross reaction with (binding to) mouse EGFR (mouse EGFR): cross reacts with (binds to) mouse EGFR
B1: P1X: affinity matured anti-EGFR monoclonal antibody (Bin1) of parental ca; VH SEQ ID NO: 19, VL SEQ ID NO: 20 (antibody, V domains shown)
VH: MGFGLSWLFLVAILKGVQCQVQLVQSGAEVKKPGSSVKVSCKASGGTFSSYAISWVRQAPGQGLEWMGSIIPIFGTVNYAQKFQGRVTITADESTSTAYMELSSLRSEDTAVYYCARDPSVNLYWYFDLWGRGTLVTVSS
VL: MGTPAQLLFLLLLWLPDTTGDIQMTQSPSTLSASVGDRVTITCRASQSISSWWAWYQQKPGKAPKLLIYDASSLESGVPSRFSGSGSGTEFTLTISSLQPDDFATYYCQQYHAHPTTFGGGTKVEIK
- phospho-ERK inhibition with 80 nM EGF (in words) (phospho-ERK; 80 nM of EGF ligand): partial
- phospho-ERK inhibition (in words) (phospho-ERK; EGF 50 ng/ml, dilution series): dose-dependent inhibition of phospho-ERK activity

B2: P3X: affinity matured anti-EGFR monoclonal antibody (Bin3) of parental ch; VH SEQ ID NO: 23, VL SEQ ID NO: 24 (antibody, V domains shown)
VH: MGFGLSWLFLVAILKGVQCQVQLVQSGAEVKKPGASVKVSCKASGYAFTSYGINWVRQAPGQGLEWMGWISAYNGNTYYAQKLRGRVTMTTDTSTSTAYMELRSLRSDDTAVYYCARDLGGYGSGSVPFDPWGQGTLVTVSS
VL: MGTPAQLLFLLLLWLPDTTGEIVMTQSPATLSVSPGERATLSCRASQSVSSNLAWYQQKPGQAPRLLIYGASTRATGIPARFSGSGSGTEFTLTISSLQSEDFAVYYCQDYRTWPRRVFGGGTKVEIK
- phospho-EGFR inhibition, single antibody (in words) (phospho-EGFR): partial phospho-EGFR inhibition
